Laboratory results published in article PMC9894557, “The opportunistic pathogen Pseudomonas aeruginosa exploits bacterial biotin synthesis pathway to benefit its infectivity” (PLOS Pathogens, 2023).
Numbering of substitutions follows the chain as printed. In names and notes the source's numbering stands.

B1: Pseudomonas aeruginosa BioH (PA0502) S66A (enzyme)
chain: MRDHLILLPGWGLGSAPLEPLRDALHEREPHLNVLIEPLPSLDDAADWLDELDDNLPRDSWLAGWALGGMLAGELAARRGDDCRGLLTLASNPCFRVREDWPNAMPAETFEDFFEAFLLEPHLTRKRFTLLVSQGARDPRTLARQLQVALPQLEREALVAGLQLLGQLDTRAALENFRGPQLHLFAEADALVPLAAAEALLEWLPDVEVSTLAASHGLPLECPDEVAGAILRFLREGDDA
notes: BioH (PA0502), Pseudomonas aeruginosa PAO1, catalytic triad mutant; Purification is described only for the wild type; also called BioH(S66A); source: E. coli, from pET28a::bioH(S66A), purified
B2: Pseudomonas aeruginosa BioH (PA0502) D189A (enzyme)
chain: B1 chain with A66S, D189A
notes: BioH (PA0502), Pseudomonas aeruginosa PAO1, catalytic triad mutant; Purification is described only for the wild type; also called BioH(D189A); source: E. coli, from pET28a::bioH(D189A), purified

Target: the molecule itself
Test: SEC; gel filtration on a Superdex 75 column; Streptococcus suis FakB2 (~33 kDa, known monomer) as size control

Protein	binding result
B1	binds
B2	binds
